Test results as given in US20090111104A1, “Method for Monitoring Hydrolytic Activity” (Fluorotechnics Pty Limited, priority 2005, published 2009).

Key:
Type in all cases: biochemical, bovine
BSA [1] = molecular target: T1, BSA (Bos taurus, UniProt P02769); experiment: Tryptic digestion of BSA followed with Nile Red; settings: Nile Red reporter dye
T1 construct: purchased Sigma-Aldrich A3059
Experimental: • As per Example 2 above. • Nile Red (20 mM in ethanol, Sigma-Aldrich, 73189) diluted to 100-fold in 50 mM bicine
As per Example 2 except the Fluorostar plate reader was set to 520 nm excitation and 630 (±10 nm) bandpass emission filter.

carbonic anhydrase (CA) = molecular target: T2, carbonic anhydrase (CA) (Bos taurus, UniProt P00921); experiment: Real-time monitoring of tryptic digestion of carbonic anhydrase using epicocconone with and without SDS
T2 construct: purchased Sigma-Aldrich C7025
T2 sequence (P00921 whole entry): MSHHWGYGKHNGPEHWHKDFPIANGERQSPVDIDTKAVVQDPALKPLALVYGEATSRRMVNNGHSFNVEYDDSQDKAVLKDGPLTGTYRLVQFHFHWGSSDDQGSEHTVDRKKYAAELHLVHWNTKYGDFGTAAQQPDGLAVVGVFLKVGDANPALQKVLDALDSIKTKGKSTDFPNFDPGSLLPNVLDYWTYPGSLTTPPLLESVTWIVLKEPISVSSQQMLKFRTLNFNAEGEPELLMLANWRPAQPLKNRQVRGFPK
Experimental: • 1 Trypsin digestion was carried out in bicine buffer (pH 8.4) • 2 Protein samples were prepared in 10 mg/mL in 100 mM bicine buffer. • 3 One hundred microliter of the protein sample was used for trypsin digestion.
• 4. The 100 μL of protein samples was reduced by adding 1 μL of 10% SDS and 5 μL of DTT stock for 10 min at 80° C. • 5. Another sample was reduced with only 5 μL of DTT stock for 10 min at 80° C. (no SDS) • 3 The samples were alkylated by adding 4 μL of the iodoacetamide stock at room temperature for 45 min-1 hr. • 4 The remaining iodoacetamide of the samples were neutralised by adding 20 μL of the DTT at room temp for 45 min-1 hr. […] Fluorescence development was monitored in real time every 2 minutes up to 400 minutes using FluoStar (Ex/Em=540±10/[…]±10). • 16. […]
Progress curves were fitted as per Example 6. […] In the presence of a non-denaturing quantity of detergent (open squares) carbonic anhydrase (CA) becomes more hydrophobic and has an increase in fluorescence when exposed to a fluorophore that is sensitive to its environment such as epicocconone. Upon addition of trypsin, the fluorescence drops as per Example 6 but in the sample with no SDS (inverted triangles) the change in fluorescence is reduced by more than 50% compared to in the presence of SDS (open circles). […]

BSA [2] = molecular target: T1, BSA; experiment: Real-time monitoring of trypsin digestion of BSA using epicocconone (FluoStar assay); settings: epicocconone reporter dye, bicine pH 8.4, 37° C., trypsin 1:40, reduced and alkylated BSA
Experimental: A.3.1 Preparation of BSA for digestion • 1 Trypsin digestion was carried out in bicine buffer (ph 8.4). • 2 BSA was prepared in 10 mg/mL in 50 mM bicine buffer. • 3 One hundred microliter of the BSA sample was used for trypsin digestion.
A.3.2 Reduction and Alkylation • 1 The 100 μL of BSA sample was reduced by adding 5 μL of DTT stock for 10 min at 80° C. • 2 The sample was alkylated by adding 4 μL of the iodoacetamide stock at room temperature for 45 min-1 hr. • 3 The remaining iodoacetamide of the sample was neutralized by adding 20 μL of the DTT at room temp for 45 min-1 hr.
A.3.3 Real-Time Monitoring of Trypsin Digestion Using Epicocconone (FluoStar Assay) • 1 The reduced and denatured BSA sample from 3.2 above was diluted 10-fold in 50 mM bicine buffer (25 μL+225 μL bicine buffer). BSA molar concentration was calculated to be approx. 4 μM. • 2 One hundred microliter of the sample (step 1) was prepared in duplicates and added to a microtiter plate. […] At this point in time, it required approximately 10 min to get appropriate FluoStar setting conditions. • 4 Trypsin (Sigma-Aldrich T6567), reconstituted in 1 mM HCl, was added at a ratio of 1:40. • 5 Fluorescence development was monitored in real time every 2 minutes up to 6 hours using FluoStar (Ex/Em=540/630±12). […]

T1 sequence (P02769 25-607): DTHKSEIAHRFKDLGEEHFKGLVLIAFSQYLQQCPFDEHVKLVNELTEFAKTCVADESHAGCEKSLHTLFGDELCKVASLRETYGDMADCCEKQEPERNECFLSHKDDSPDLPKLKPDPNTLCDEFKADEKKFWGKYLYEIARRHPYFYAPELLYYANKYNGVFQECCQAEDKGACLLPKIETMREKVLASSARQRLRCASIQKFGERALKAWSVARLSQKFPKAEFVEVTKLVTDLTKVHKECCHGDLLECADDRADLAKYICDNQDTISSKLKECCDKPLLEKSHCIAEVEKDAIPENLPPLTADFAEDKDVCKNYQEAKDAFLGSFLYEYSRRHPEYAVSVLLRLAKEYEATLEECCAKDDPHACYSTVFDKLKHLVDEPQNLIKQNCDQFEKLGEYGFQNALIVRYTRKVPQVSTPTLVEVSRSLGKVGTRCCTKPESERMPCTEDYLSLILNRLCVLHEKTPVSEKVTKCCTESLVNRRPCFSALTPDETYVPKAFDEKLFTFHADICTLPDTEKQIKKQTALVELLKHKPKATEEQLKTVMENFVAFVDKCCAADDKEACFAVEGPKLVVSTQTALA

B1: trypsin: Proteomics grade trypsin protease, Sigma-Aldrich T6567 (protein, UniProt P00761 9-231, looked up)
Trypsin: IVGGYTCAANSIPYQVSLNSGSHFCGGSLINSQWVVSAAHCYKSRIQVRLGEHNIDVLEGNEQFINAAKIITHPNFNGNTLDNDIMLIKLSSPATLNSRVATVSLPRSCAAAGTECLISGWGNTKSSGSSYPSLLQCLKAPVLSDSSCKSSYPGQITGNMICVGFLEGGKDSCQGDSGGPVVCNGQLQGIVSWGYGCAQKNKPGVYTKVCNYVNWIQQTIAAN
- apparent first order rate constant for tryptic digestion (BSA [1]): 0.1302 min⁻¹
- observed rate constant (carbonic anhydrase (CA); with SDS): 0.025 min⁻¹
- observed rate constant (carbonic anhydrase (CA); without SDS): 0.025 min⁻¹
- apparent first order rate constant (BSA [2]): 0.109 min⁻¹
